In paper PMC3897701, “Human and Mouse CD137 Have Predominantly Different Binding CRDs to Their Respective Ligands” (PLoS ONE, 2014):

Molecular target: T1, hCD137L-mFc (human CD137L extracellular domain and mouse IgG-Fc fusion protein) (human, UniProt P41273 50-254)
T1 construct: human CD137 ligand (4-1BBL), extracellular domain; a silent g to c change at base 405 destroys an AgeI site without any amino acid changed; also called hL; hL-mFc; source: COS-7, transfected, purified (rProtein A Sepharose)
Test: ELISA; purified hCD137L-mFc coated at 1 µg/ml; expression supernatants of human or mouse CD137-hFc fragments added; goat anti-human IgG-HRP; positive if P/N>2.1
Details: one partner purified

T1 sequence (P41273 50-254): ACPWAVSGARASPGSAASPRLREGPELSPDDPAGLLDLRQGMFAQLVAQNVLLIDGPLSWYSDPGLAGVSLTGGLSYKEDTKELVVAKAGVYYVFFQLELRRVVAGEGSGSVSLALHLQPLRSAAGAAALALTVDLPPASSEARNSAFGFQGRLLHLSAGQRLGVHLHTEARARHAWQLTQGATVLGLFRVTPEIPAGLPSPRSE

B1: mouse CD137 extracellular domain with hFc tail (mE-hFc) (Fc fusion, UniProt P20334 24-185, looked up)
chain: VQNSCDNCQPGTFCRKYNPVCKSCPPSTFSSIGGQPNCNICRVCAGYFRFKKFCSSTHNAECECIEGFHCLGPQCTRCEKDCRPGQELTKQGCKTCSLGTFNDQNGTGVCRPWTNCSLDGRSVLKTGTTEKDVVCGPPVVSFSPSTTISVTPEGGPGGHSLQ
notes: signal peptide in the construct; mouse CD137 (4-1BB), entire extracellular region with its own leader (1-23 aa), CRDI-IV and the hinge-like region (STP), residues 1-185; Runs as a dimer on SDS-PAGE without 2-ME; also called mE-Fc; mCD137-hFc; source: COS-7, transfected (DEAE dextran); expression supernatant, and purified (rProtein A Sepharose); not shown: Fc (human IgG1 hinge-CH2-CH3), …
With B1 the “binding relative to that of human CD137” value was ~30%.
